One series addresses T1, BrxX:Ocr (BrxX2:Ocr2) (Escherichia coli, UniProt P0DUF9).
T1 construct: gene pglX; full-length BrxX with N-terminal His6 kept plus T7 Ocr with N-His-TEV kept; both expressed in E. coli BW25113; BrxX2:Ocr2 complex; with Protein Ocr (Escherichia phage T7)
T1 sequence (P0DUF9 1-1205): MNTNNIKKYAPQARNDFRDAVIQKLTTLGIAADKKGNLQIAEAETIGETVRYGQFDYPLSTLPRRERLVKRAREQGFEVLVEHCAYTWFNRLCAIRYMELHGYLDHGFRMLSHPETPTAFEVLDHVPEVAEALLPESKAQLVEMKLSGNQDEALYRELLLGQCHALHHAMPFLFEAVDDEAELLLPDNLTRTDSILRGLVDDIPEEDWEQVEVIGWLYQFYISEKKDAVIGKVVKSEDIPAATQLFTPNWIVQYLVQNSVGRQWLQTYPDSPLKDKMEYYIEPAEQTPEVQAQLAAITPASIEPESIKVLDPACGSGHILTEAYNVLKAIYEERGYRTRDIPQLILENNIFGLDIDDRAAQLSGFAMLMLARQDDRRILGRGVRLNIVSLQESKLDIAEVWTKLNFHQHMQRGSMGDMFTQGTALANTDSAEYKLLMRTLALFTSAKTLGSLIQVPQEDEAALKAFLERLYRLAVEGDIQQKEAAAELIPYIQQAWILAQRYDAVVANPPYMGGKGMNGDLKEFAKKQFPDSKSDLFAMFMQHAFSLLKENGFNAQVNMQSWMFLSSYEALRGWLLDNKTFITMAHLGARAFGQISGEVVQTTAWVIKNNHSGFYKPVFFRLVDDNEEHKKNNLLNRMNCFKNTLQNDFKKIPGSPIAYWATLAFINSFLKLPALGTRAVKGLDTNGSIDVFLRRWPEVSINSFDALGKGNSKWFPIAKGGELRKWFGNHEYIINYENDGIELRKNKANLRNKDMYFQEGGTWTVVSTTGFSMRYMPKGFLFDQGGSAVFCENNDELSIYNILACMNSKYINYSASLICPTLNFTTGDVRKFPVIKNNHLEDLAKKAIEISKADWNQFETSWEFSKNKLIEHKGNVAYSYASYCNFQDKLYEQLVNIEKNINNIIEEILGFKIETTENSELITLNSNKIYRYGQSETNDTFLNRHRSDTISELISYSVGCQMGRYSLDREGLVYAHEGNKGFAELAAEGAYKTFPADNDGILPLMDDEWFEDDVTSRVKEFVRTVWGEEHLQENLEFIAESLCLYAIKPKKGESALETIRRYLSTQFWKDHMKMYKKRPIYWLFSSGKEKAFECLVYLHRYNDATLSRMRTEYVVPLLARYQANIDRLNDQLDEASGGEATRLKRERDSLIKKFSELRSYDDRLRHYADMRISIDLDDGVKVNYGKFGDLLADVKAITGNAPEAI
T1 sequence (P03775 1-117 partner): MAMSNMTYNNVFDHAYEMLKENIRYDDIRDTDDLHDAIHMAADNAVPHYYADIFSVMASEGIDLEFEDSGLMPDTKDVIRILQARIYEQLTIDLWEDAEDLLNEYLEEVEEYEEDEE
The series can be described thus: cryoEM structure ([…] A). As to conditions: Ocr bound, no DNA, Mg2+, CHAPSO, pH 7.5; site: methyltransferase domain pocket; SAM modelled from the DNA-bound structure. Format: binding.

Series [1] has as its target T2, BrxX (PglX) (Escherichia coli HS, UniProt P0DUF9 1-1205).
T2 sequence: T1 sequence (P0DUF9 1-1205)
Description: EMSA; improved binding; with and without 0.5 mM SAM; EMSA: 20 nM Cy5-DNA, 0.5x TBE pH 8.0, 35 mM NaCl, 5% glycerol, +/-0.5 mM SAM or SAH, 30 min, room temperature; BLI: 20 mM Tris-HCl pH 8.0, 100 mM NaCl, 0.05 mg/mL BSA, 0.02% Tween-20, +/-0.5 mM SAM, 30 C. As to conditions: protein: recombinant; tags: N-His6; label: 5'-Cy5 on strand 1; blunt. Background: In EMSA bound probe runs differently from free probe, usually more slowly.

The target in series [2] is T2, BrxX (PglX). The series can be described thus: BLI; SAM; heterogeneous binding, no accurate Kd; EMSA: 20 nM Cy5-DNA, 0.5x TBE pH 8.0, 35 mM NaCl, 5% glycerol, +/-0.5 mM SAM or SAH, 30 min, room temperature; BLI: 20 mM Tris-HCl pH 8.0, 100 mM NaCl, 0.05 mg/mL BSA, 0.02% Tween-20, +/-0.5 mM SAM, 30 C. As to conditions: protein: recombinant; tags: N-His6; label: 5'-biotin on strand 1; blunt. (In BLI a coated tip is dipped into the sample, and binding shifts an interference pattern.)

The target in series [3] is T2, BrxX (PglX). Description: EMSA; non-methylated partner of N9; no cofactor, SAM or SAH; EMSA: 20 nM Cy5-DNA, 0.5x TBE pH 8.0, 35 mM NaCl, 5% glycerol, +/-0.5 mM SAM or SAH, 30 min, room temperature; BLI: 20 mM Tris-HCl pH 8.0, 100 mM NaCl, 0.05 mg/mL BSA, 0.02% Tween-20, +/-0.5 mM SAM, 30 C. As to conditions: protein: recombinant; tags: N-His6; label: 5'-Cy5 on strand 1; blunt.

For the next series, the target named is T3, BrxA (Escherichia coli HS, UniProt P0DUF6 1-213).
T3 sequence: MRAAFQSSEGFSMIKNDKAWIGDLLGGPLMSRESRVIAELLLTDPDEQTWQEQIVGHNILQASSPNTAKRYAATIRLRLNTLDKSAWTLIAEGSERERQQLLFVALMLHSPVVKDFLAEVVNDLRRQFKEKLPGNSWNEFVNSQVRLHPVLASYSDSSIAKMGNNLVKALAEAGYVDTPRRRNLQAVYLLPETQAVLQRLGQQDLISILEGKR
The series can be described thus: EMSA; EMSA: 20 nM Cy5-DNA, 0.5x TBE pH 8.0, 35 mM NaCl, 5% glycerol, +/-0.5 mM SAM or SAH, 30 min, room temperature; BLI: 20 mM Tris-HCl pH 8.0, 100 mM NaCl, 0.05 mg/mL BSA, 0.02% Tween-20, +/-0.5 mM SAM, 30 C. As to conditions: protein: recombinant; tags: N-His6; label: 5'-Cy5 on strand 1; blunt.

The target in series [4] is T2, BrxX (PglX). The series can be described thus: EMSA; 0.5 mM SAM; EMSA: 20 nM Cy5-DNA, 0.5x TBE pH 8.0, 35 mM NaCl, 5% glycerol, +/-0.5 mM SAM or SAH, 30 min, room temperature; BLI: 20 mM Tris-HCl pH 8.0, 100 mM NaCl, 0.05 mg/mL BSA, 0.02% Tween-20, +/-0.5 mM SAM, 30 C. The note with it: protein: recombinant; tags: N-His6; label: 5'-Cy5 on strand 1; blunt.
Series [5] addresses T2, BrxX (PglX). Description: EMSA; no cofactor; EMSA: 20 nM Cy5-DNA, 0.5x TBE pH 8.0, 35 mM NaCl, 5% glycerol, +/-0.5 mM SAM or SAH, 30 min, room temperature; BLI: 20 mM Tris-HCl pH 8.0, 100 mM NaCl, 0.05 mg/mL BSA, 0.02% Tween-20, +/-0.5 mM SAM, 30 C. As to conditions: protein: recombinant; tags: N-His6; label: 5'-Cy5 on strand 1; blunt.
Series [6] concerns the target T2, BrxX (PglX). Description: cryoEM structure (2.2 A); SAM, metal modelled as Mg2+; EMSA: 20 nM Cy5-DNA, 0.5x TBE pH 8.0, 35 mM NaCl, 5% glycerol, +/-0.5 mM SAM or SAH, 30 min, room temperature; BLI: 20 mM Tris-HCl pH 8.0, 100 mM NaCl, 0.05 mg/mL BSA, 0.02% Tween-20, +/-0.5 mM SAM, 30 C. The note with it: protein: recombinant; tags: N-His6; blunt.
Series [7] deals with T2, BrxX (PglX). The series can be described thus: BLI; 1:1 fit, stimulated by SAM; Kd only in figure; EMSA: 20 nM Cy5-DNA, 0.5x TBE pH 8.0, 35 mM NaCl, 5% glycerol, +/-0.5 mM SAM or SAH, 30 min, room temperature; BLI: 20 mM Tris-HCl pH 8.0, 100 mM NaCl, 0.05 mg/mL BSA, 0.02% Tween-20, +/-0.5 mM SAM, 30 C. As to conditions: protein: recombinant; tags: N-His6; label: 5'-biotin on strand 1; blunt.

Residue numbers refer to the chain shown, from its start. Numbers in names are those of the source.

For `C[S+](CC[C@H](N)C(=O)O)C[C@H]1O[C@@H](n2cnc3c(N)ncnc32)[C@H](O)[C@@H]1O` (some centres unmarked) [S-adenosyl methionine], the “cryoEM structure (2.8 A)” value at BrxX:Ocr (BrxX2:Ocr2) is given as “The MTD displayed density for a molecule of SAM”.

B1: 50 bp BREX (dsDNA)
DNA 1: AGTCATCAGTAGTCAAGTCAGTGGTAAGGTCAGGACAGGAGTCAGCAGGA
DNA 2: TCCTGCTGACTCCTGTCCTGACCTTACCACTGACTTGACTACTGATGACT
Regarding B1, the binding result with BrxX (PglX) [1] is on record as “binds”.

B2: 40 bp BREX, biotin (dsDNA)
DNA 1: TCAGTAGTCAAGTCAGTGGTAAGGTCAGGACAGGAGTCAG
DNA 2: CTGACTCCTGTCCTGACCTTACCACTGACTTGACTACTGA
Turning to B2, the binding result with BrxX (PglX) [2] is “binds”.

B3: 40 bp BREX (dsDNA)
DNA 1: B2 DNA 1
DNA 2: B2 DNA 2
As to B3, the binding result in the series with BrxX (PglX) [3] is recorded as “binds”.

B4: 43 bp scrambled (dsDNA)
DNA 1: AGTCAGTAGTGAGGTCAGGAATGAGTCAGTCTCACTGTCAGGA
DNA 2: TCCTGACAGTGAGACTGACTCATTCCTGACCTCACTACTGACT
Consider B4, for which, in the series with BrxA, the binding result was “binds”. Also, the Kd (commonly the concentration at which binding is half-saturated) with BrxX (PglX) [4] was approximately 300 nM.

B5: 43 bp, 1 BREX site (dsDNA)
DNA 1: AGTCAGTGGTAAGGTCAGGAATGAGTCAGTTGGCAAGTCAGGA
DNA 2: TCCTGACTTGCCAACTGACTCATTCCTGACCTTACCACTGACT
As for B5, the binding result in the series with BrxA is reported as “binds”. The Kd is approximately 300 nM with BrxX (PglX) [5] and approximately 60 nM with BrxX (PglX) [4].

B6: 43 bp, 2 BREX sites head-to-tail (H2T) (dsDNA)
DNA 1: B5 DNA 1 with T31G, G33T, C34A, A36G
DNA 2: B5 DNA 2 with T8C, G10T, C11A, A13C
Consider B6, for which, in the series with BrxX (PglX) [6], the binding result is “binds”.

B7: 20 bp BREX, biotin (dsDNA)
DNA 1: AGTCAGTGGTAAGGTCAGGA
DNA 2: TCCTGACCTTACCACTGACT
For B7, the binding result with BrxX (PglX) [7] is given as “binds”.

Source of the values: PMC11842806, “Molecular basis of foreign DNA recognition by BREX anti-phage immunity system” (Nature Communications, 2025).
